These results are taken from patent US20230416410A1.

Where a chain is given by its changes, count along the chain named.

In test [1] the target is recombinant bovine FcRn (bovine) (UniProt F6R592). Kind of test: SPR Biacore, bFcRn on SA sensor, pH 6, 25 C.
Test [2] has the same target. Description: SPR Biacore, bFcRn, pH 6; against bIgG3a wildtype mAb.
In test [3] the target is recombinant bovine Fcg2R (bovine). Kind of test: SPR Biacore, bFcg2R amine-coupled on CM5, pH 7.4, 15 C.
For test [4] the target is unchanged. Kind of test: SPR Biacore, bFcg2R amine-coupled on CM5; against bIgG2a wildtype mAb.

recombinant bovine FcRn (bovine), sequence (chain, as listed by the source, chain 1 of 2): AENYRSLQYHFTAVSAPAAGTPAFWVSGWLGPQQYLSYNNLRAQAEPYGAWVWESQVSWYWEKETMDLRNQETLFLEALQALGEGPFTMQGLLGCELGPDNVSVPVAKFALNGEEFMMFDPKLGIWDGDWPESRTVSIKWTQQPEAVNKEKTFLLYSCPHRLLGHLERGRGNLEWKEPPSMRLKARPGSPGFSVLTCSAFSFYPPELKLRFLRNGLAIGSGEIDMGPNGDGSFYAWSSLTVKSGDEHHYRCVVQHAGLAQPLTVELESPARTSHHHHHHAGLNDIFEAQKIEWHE
recombinant bovine FcRn (bovine), sequence (P01888 21-118, chain 2 of 2): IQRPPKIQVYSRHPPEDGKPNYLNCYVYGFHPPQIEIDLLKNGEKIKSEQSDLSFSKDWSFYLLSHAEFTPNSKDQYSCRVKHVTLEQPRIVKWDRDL
recombinant bovine Fcg2R (bovine), sequence (main, as listed by the source): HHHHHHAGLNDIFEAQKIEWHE

B1: bIgG3a wildtype mAb (antibody, part only; not given: variable domains, not shown: another chain or arm of the molecule)
constant: ASTTAPKVYPLASSCGDTSSSTVTLGCLVSSYMPEPVTVTWNSGALKSGVHTFPAVRQSSGLYSLSSMVTVPASSSETQTFTCNVAHPASSTKVDKAVTARRPVPTTPKTTIPPGKPTTPKSEVEKTPCQCSKCPEPLGGLSVFIFPPKPKDTLTISGTPEVTCVVVDVGQDDPEVQFSWFVDDVEVHTARTKPREEQFNSTYRVVSALRIQHQDWLQGKEFKCKVNNKGLPAPIVRTISRTKGQAREPQVYVLAPPREELSKSTLSLTCLITGFYPEEIDVEWQRNGQPESEDKYHTTAPQLDADGSYFLYSKLRVNKSSWQEGDHYTCAVMHEALRNHYKEKSISRSPGK
As to B1, the equilibrium dissociation constant (Kd) in test [1] was determined as 30.2 nM.

B2: bIgG3a_R433H mutant mAb (antibody, part only; not given: variable domains, not shown: another chain or arm of the molecule)
constant: B1 constant with R338H
Regarding B2, in test [1], the Kd was 9.14 nM. Moreover, in test [2], the fold higher affinity than bIgG3a wildtype was determined as 5 fold.

B3: bIgG2a_L432A mAb (antibody, part only; not given: variable domains, not shown: another chain or arm of the molecule)
constant: ASTTAPKVYPLTSCCGDKSSSRVTLGCLVSSYMPEPVTVTWNSGALKSGVHTFPAVLQSSGLYSLSSMVTVPGSSSGQTFTCNVAHPASSTKVDKAVGVSSDCSKPNNQHCVREPSVFIFPPKPKDTLMITGTPEVTCVVVNVGHDNPEVQFSWFVDDVEVHTARTKPREEQFNSTYRVVSALPIQHQDWTGGKEFKCKVNIKGLSASIVRIISRSKGPAREPQVYVLDPPKEELSKSTVSVTCMVIGFYPEDVDVEWQRDRQTESEDKYRTTPPQLDADRSYFLYSKLRVDRNSWQRGDTYTCVVMHEAAHNHYMQKSTSKSAGK
With B3, in test [1], the Kd worked out at 0.579 nM.

B4: bIgG2a_M437A mAb (antibody, part only; not given: variable domains, not shown: another chain or arm of the molecule)
constant: B3 constant with A311L, M316A
With B4, the dissociation constant (Kd) in test [1] was 0.59 nM.

B5: bIgG2a_N434A_M437A mAb (antibody, part only; not given: variable domains, not shown: another chain or arm of the molecule)
constant: B3 constant with A311L, N313A, M316A
Consider B5, for which the dissociation constant (Kd) in test [1] was 2.31 nM.

B6: bIgG2a_N434A mAb (antibody, part only; not given: variable domains, not shown: another chain or arm of the molecule)
constant: B3 constant with A311L, N313A
As to B6, in test [1], the Kd was 1.04 nM.

B7: bIgG2a_L432A_N434A_M437A mAb (antibody, part only; not given: variable domains, not shown: another chain or arm of the molecule)
constant: B3 constant with N313A, M316A
For the molecule B7, in test [1], the Kd turned out to be 6.96 nM.

B8: bIgG2a_L432A_N434A mAb (antibody, part only; not given: variable domains, not shown: another chain or arm of the molecule)
constant: B3 constant with N313A
Regarding B8, the Kd came to 1.7 nM in test [1] and 59.3 nM in test [3]. Besides, in test [4], the Fcg2R KD reduction from WT came to 4 fold.

B9: bIgG2a_L432A_M437A mAb (antibody, part only; not given: variable domains, not shown: another chain or arm of the molecule)
constant: B3 constant with M316A
For the molecule B9, the Kd in test [1] is 3.03 nM.

B10: bIgG1a mAb (antibody, part only; not given: variable domains, not shown: another chain or arm of the molecule)
constant: ASTTAPKVYPLSSCCGDKSSSTVTLGCLVSSYMPEPVTVTWNSGALKSGVHTFPAVLQSSGLYSLSSMVTVPGSTSGTQTFTCNVAHPASSTKVDKAVDPRCKTTCDCCPPPELPGGPSVFIFPPKPKDTLTISGTPEVTCVVVDVGHDDPEVKFSWFVDDVEVNTATTKPREEQFNSTYRVVSALRIQHQDWTGGKEFKCKVHNEGLPAPIVRTISRTKGPAREPQVYVLAPPQEELSKSTVSLTCMVTSFYPDYIAVEWQRNGQPESEDKYGTTPPQLDADGSYFLYSRLRVDRNSWQEGDTYTCVVMHEALHNHYTQKSTSKSAGK
Take B10: the Kd in test [1] was determined as 31.4 nM.
